Data taken from article PMC12887176, “IRF1 is a context-dependent homeostatic gatekeeper of basal immunity and antiviral readiness”.

Target: T1, IRF1 DBD-mNeonGreen (UniProt P10914 1-136)
T1 sequence: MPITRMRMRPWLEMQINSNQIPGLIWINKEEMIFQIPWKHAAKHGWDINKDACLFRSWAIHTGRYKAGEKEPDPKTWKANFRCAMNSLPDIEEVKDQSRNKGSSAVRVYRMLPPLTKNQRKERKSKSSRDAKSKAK
Assay: mass photometry; 1:1 protein:DNA; ~45 to ~65 kDa; 1:1 molar protein:DNA, 4 h at room temperature; protein lysed in PBS with 360 mM NaCl, 10% glycerol, DTT (assay buffers and pH not given); PBM: PBS, 360 mM NaCl, 1 mM DTT, 2% milk, 0.2% Triton X-100, room temperature
Conditions: protein: recombinant; tags: mNeonGreen fusion (42 kDa total); blunt

B1: specific DNA (IRF1 consensus) (dsDNA)
DNA 1: GAGAAGTGAAAGTACTTTCACTTCTC
DNA 2: GAGAAGTGAAAGTACTTTCACTTCTC
B1: binds.
